This passage reports Kd results from patent publication US20140377280A1 (ROCKEFELLER UNIVERSITY, published 2014).

This assay concerns the target T1, α2,6-sialylated recombinant human IgG1 Fc (sFc), prepared by papain cleavage of full-length IDEC-114 antibody … (human, UniProt P0DOX5 227-449 = IgG part, limits assumed, N-linked glycan at Asn297 with terminal α2,6-linked sialic acid (in vitro galactosylation and sialylation)).
T1 construct: also called α2,6-sFc; α2,6 sFc
Briefly: SPR steady-state affinity, immobilized DC-SIGN ECD.

Method: To determine the interaction between various recombinant Fc preparations to soluble hDC-SIGN or hFcγRs, steady-state affinity measurements were recorded on a Biacore T100 sensor. Receptors, diluted to 20-50 μg/mL in NaOAc pH 5.0, were immobilized on CMS chips at high density (2000 RU) by standard amine coupling. For hDC-SIGN interactions, injections were performed at a flow rate of 20 μL/min with commercially available HBS-P+ buffer adjusted to pH 9.0 and supplemented with 2 mM CaCl₂ and 500 mM NaCl. For hFcγRs interactions, injections were performed at a flow rate of 20 μL/min with commercially available HBS-EP+ buffer. Surfaces were regenerated with a short pulse of 50 mM NaOH. Kd values were calculated after subtraction of background binding to a control flow cell using Biacore Evaluation software.

B1: soluble human DC-SIGN extracellular domain with N-terminal strep tag (receptor, UniProt Q9NNX6 59-404, looked up)
chain: QVSKVPSSISQEQSRQDAIYQNLTQLKAAVGELSEKSKLQEIYQELTQLKAAVGELPEKSKLQEIYQELTRLKAAVGELPEKSKLQEIYQELTWLKAAVGELPEKSKMQEIYQELTRLKAAVGELPEKSKQQEIYQELTRLKAAVGELPEKSKQQEIYQELTRLKAAVGELPEKSKQQEIYQELTQLKAAVERLCHPCPWEWTFFQGNCYFMSNSQRNWHDSITACKEVGAQLVVIKSAEEQNFLQLQSSRSNRFTWMGLSDLNQEGTWQWVDGSPLLPSFKQYWNRGEPNNVGEEDCAEFSGNGWNDDKCNLAKFWICKKSAASCSRDEEQFLSPAPATPNPPPA
notes: extracellular domain; also called DC-SIGN ECD; soluble hDC-SIGN; not shown: N-terminal strep tag
As to B1, the dissociation constant Kd is roughly 1300 nM.
